The target in assay [1] is recombinant TACE catalytic domain.
The next assay concerns the target T1, MMP7 catalytic domain.
T1 sequence (P09237 whole entry, species assumed, looked up): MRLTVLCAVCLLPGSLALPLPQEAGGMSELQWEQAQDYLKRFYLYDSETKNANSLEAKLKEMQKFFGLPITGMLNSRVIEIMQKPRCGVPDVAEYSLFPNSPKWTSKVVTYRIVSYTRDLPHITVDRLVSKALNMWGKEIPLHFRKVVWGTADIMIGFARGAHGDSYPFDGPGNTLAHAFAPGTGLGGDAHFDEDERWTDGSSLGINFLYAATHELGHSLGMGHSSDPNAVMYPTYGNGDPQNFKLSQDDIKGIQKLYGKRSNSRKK

Sequence of recombinant TACE catalytic domain (P78536 215-671): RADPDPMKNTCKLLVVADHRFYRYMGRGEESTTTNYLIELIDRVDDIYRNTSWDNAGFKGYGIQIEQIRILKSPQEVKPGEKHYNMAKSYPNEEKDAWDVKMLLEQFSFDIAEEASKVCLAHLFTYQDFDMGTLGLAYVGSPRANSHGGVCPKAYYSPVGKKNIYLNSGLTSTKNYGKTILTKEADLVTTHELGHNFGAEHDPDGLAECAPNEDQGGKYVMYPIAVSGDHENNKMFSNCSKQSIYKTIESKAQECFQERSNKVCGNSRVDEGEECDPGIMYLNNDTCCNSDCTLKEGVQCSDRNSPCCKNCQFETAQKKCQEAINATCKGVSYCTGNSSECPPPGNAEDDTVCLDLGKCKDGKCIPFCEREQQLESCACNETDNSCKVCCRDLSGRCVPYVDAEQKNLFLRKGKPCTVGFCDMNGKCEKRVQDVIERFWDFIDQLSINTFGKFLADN
Sequence of MMP9 catalytic domain (P14780 20-707): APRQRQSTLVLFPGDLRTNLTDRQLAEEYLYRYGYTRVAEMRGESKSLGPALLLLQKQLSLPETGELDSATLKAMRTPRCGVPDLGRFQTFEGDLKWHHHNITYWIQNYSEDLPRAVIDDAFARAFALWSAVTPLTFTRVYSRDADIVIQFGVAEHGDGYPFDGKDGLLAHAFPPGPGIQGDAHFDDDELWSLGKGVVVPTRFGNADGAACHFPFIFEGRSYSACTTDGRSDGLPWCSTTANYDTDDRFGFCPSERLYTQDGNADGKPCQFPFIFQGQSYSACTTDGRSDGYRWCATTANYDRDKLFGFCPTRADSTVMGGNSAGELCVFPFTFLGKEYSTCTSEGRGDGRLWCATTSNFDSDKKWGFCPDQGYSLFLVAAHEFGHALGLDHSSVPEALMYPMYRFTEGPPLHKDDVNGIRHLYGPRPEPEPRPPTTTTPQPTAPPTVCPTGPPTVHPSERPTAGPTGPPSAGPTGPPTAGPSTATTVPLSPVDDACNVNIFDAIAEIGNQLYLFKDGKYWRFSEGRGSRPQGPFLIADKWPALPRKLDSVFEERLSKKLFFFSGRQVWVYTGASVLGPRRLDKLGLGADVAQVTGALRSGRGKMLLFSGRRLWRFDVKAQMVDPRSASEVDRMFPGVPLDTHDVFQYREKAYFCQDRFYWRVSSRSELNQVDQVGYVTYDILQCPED

On to “TACE prodomain (TPD) R58A (from UniProt P78536 23-214) (domain or fragment)”, for which the IC50 of inhibition of the enzyme's hydrolysis of a fluorogenic peptide (10 nM TACE, 37 °C) in assay [1] worked out at 0.307 µM. For the same substance, in the assay with MMP9 catalytic domain, the IC50 of inhibition of the enzyme's hydrolysis of a fluorogenic peptide (10 nM MMP9, Mca-PLGL-Dpa-AR 10 μM, 37 °C) came out at 4.34 µM. The substance also yielded an IC50 of inhibition of the enzyme's hydrolysis of a fluorogenic peptide (10 nM MT1-MMP, Mca-PLGL-Dpa-AR 10 μM, 37 °C) in the assay with MT1-MMP catalytic domain of 4.65 µM.

With “TACE prodomain double mutant R58A/C184A (TPD-DM) (from UniProt P78536 23-214) (domain or fragment)”, in assay [1], the IC50 of inhibition of the enzyme's hydrolysis of a fluorogenic peptide (10 nM TACE, 37 °C) stood at 0.018 µM. In the assay with MMP7 catalytic domain, this substance registered an IC50 of inhibition of the enzyme's hydrolysis of a fluorogenic peptide (10 nM MMP7, Mca-PLGL-Dpa-AR 10 μM, 37 °C) of 5.44 µM.

Source of the values: publication PMC5159831.
